Results as given in patent US20120316071A1 (published 2012).

Experiments:
[1] = biological target: T1, rHuman Erythropoietin R/Fc Chimera, CF (R&D Systems Cat#963-ER) (human, UniProt P19235 25-250); assay: MSD multispot ECL, antigen spotted on plate; Fab 1.19 uM; blank spot 24999
T1 construct: Bought recombinant protein; also called EPO R/Fc; Epo R; Fc part of the bought chimera not given
T1 sequence (looked up): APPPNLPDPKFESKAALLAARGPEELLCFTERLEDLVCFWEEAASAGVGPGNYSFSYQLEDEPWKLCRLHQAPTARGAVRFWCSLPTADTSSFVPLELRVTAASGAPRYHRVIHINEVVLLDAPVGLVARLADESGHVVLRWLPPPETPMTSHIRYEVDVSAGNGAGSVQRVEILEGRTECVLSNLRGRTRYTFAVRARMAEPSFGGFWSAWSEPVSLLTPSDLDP

[2] = biological target: T2, Recombinant Human DLL4 (R&D Systems Cat#1506-D4/CF) (human, UniProt Q9NR61 27-524); assay: as above
T2 construct: Bought recombinant protein; also called delta-like protein 4; rHuman DLL4

[3] = biological target: T3, rHuman EGF R/Fc Chimera, CF (R&D Systems Cat#344-ER) (human, UniProt P00533 25-645); assay: as above
T3 construct: Bought recombinant protein; also called epidermal growth factor receptor; Fc part of the bought chimera not given

[4] = biological target: T4, rHuman Notch-1/Fc Chimera, CF (R&D Systems Cat#3647-TK) (human, UniProt P46531 19-526); assay: as above
T4 construct: Bought recombinant protein; Fc part of the bought chimera not given

[5] = biological target: T5, rHuman P-Cadherin/Fc Chimera, CF (R&D Systems Cat#861-PC) (human, UniProt P22223 108-654); assay: as above
T5 construct: Bought recombinant protein; Fc part of the bought chimera not given

[6] = biological target: T1, rHuman Erythropoietin R/Fc Chimera, CF …; assay: MSD multispot ECL, antigen spotted on plate; Fab 0.2975 uM; blank spot 5019
[7] = biological target: T2, Recombinant Human DLL4 (R&D Systems …); assay: as above
[8] = biological target: T3, rHuman EGF R/Fc Chimera, CF (R&D …); assay: as above
[9] = biological target: T4, rHuman Notch-1/Fc Chimera, CF (R&D …); assay: as above
[10] = biological target: T5, rHuman P-Cadherin/Fc Chimera, CF (R&D …); assay: as above
[11] = biological target: T1, rHuman Erythropoietin R/Fc Chimera, CF …; assay: MSD multispot ECL, antigen spotted on plate; Fab 0.01859 uM; blank spot 1776
[12] = biological target: T2, Recombinant Human DLL4 (R&D Systems …); assay: as above
[13] = biological target: T3, rHuman EGF R/Fc Chimera, CF (R&D …); assay: as above
[14] = biological target: T4, rHuman Notch-1/Fc Chimera, CF (R&D …); assay: as above
[15] = biological target: T5, rHuman P-Cadherin/Fc Chimera, CF (R&D …); assay: as above
[16] = biological target: T1, rHuman Erythropoietin R/Fc Chimera, CF …; assay: MSD multispot ECL, antigen spotted on plate; Fab 0.07438 uM; blank spot 2504
[17] = biological target: T2, Recombinant Human DLL4 (R&D Systems …); assay: as above
[18] = biological target: T3, rHuman EGF R/Fc Chimera, CF (R&D …); assay: as above
[19] = biological target: T4, rHuman Notch-1/Fc Chimera, CF (R&D …); assay: as above
[20] = biological target: T5, rHuman P-Cadherin/Fc Chimera, CF (R&D …); assay: as above
[21] = biological target: T6, rHuman IGF-1 sR, (IGF-1 sR), CF (R&D Systems Cat#391-GR) (human, UniProt P08069 31-932); assay: Multispot ECL (MSD) assay, antigen spotted on plate, Fab at 0.096 µM; blank spot 917
T6 construct: Bought recombinant soluble receptor; also called insulin-like growth factor-1 soluble receptor

[22] = biological target: T6, rHuman IGF-1 sR, (IGF-1 sR), CF (R&D …); assay: Multispot ECL (MSD) assay, antigen spotted on plate, Fab at 0.48 µM; blank spot 2945
[23] = biological target: T6, rHuman IGF-1 sR, (IGF-1 sR), CF (R&D …); assay: Multispot ECL (MSD) assay, antigen spotted on plate, Fab at 0.0192 µM; blank spot 751
[24] = biological target: T7, full-length human DLL4 expressed on the surface of CHO cells (human, UniProt Q9NR61 26-685); assay: flow cytometry; 250 nM biotinylated Notch-Fc on CHO-DLL4 cells, streptavidin-PE; no-Fab baseline of the blocking series
T7 construct: also called CHO-DLL4; DLL4-expressing CHO cells

B1: Fab VH1-46_IGHD6-13*01_IGHJ4*01 & L2_IGKJ1*01 (Fab, V domains shown)
VH: QVQLVQSGAEVKKPGASVKVSCKASGYTFTSYYMHWVRQAPGQGLEWMGIINPSGGSTSYAQKFQGRVTMTRDTSTSTVYMELSSLRSEDTAVYYCAREGYSSSWYDYFDYWGQGTLVTVSS
VL: not shown
notes: Germline library Fab expressed in E. coli; VH was cloned into Plasmid A, which adds CH1 with His6 and Flag tags
[1]
  ECL signal: 193000
[2]
  ECL signal: 74900
[3]
  ECL signal: 62500
[4]
  ECL signal: 72000
[5]
  ECL signal: 69700
[6]
  ECL signal: 167000
[7]
  ECL signal: 34700
[8]
  ECL signal: 42200
[9]
  ECL signal: 37500
[10]
  ECL signal: 26000
[11]
  ECL signal: 188000
[12]
  ECL signal: 18900
[13]
  ECL signal: 11800
[14]
  ECL signal: 17600
[15]
  ECL signal: 11700
[16]
  ECL signal: 154000
[17]
  ECL signal: 20700
[18]
  ECL signal: 16600
[19]
  ECL signal: 22000
[20]
  ECL signal: 14800

B2: Fab VH1-46_IGHD6-13*01_IGHJ4*01 & A27_IGKJ1*01 (Fab, V domains shown)
VH: QVQLVQSGAEVKKPGASVKVSCKASGYTFTSYYMHWVRQAPGQGLEWMGIINPSGGSTSYAQKFQGRVTMTRDTSTSTVYMELSSLRSEDTAVYYCAREGYSSSWYDYFDYWGQGTLVTVSS
VL: not shown
notes: Germline Fab made in E. coli; VH was cloned in Plasmid A (CH1 constant region, His6 and Flag tags) and the kappa VL in Plasmid C (kappa CL); Only the variable domains are tied to this Fab by name
[21]
  ECL signal: 2450
[22]
  ECL signal: 8930
[23]
  ECL signal: 1830

B3: rHuman Notch-1/Fc Chimera (Fc fusion)
chain: ARGPRCSQPGETCLNGGKCEAANGTEACVCGGAFVGPRCQDPNPCLSTPCKNAGTCHVVDRRGVADYACSCALGFSGPLCLTPLDNACLTNPCRNGGTCDLLTLTEYKCRCPPGWSGKSCQQADPCASNPCANGGQCLPFEASYICHCPPSFHGPTCRQDVNECGQKPGLCRHGGTCHNEVGSYRCVCRATHTGPNCERPYVPCSPSPCQNGGTCRPTGDVTHECACLPGFTGQNCEENIDDCPGNNCKNGGACVDGVNTYNCRCPPEWTGQYCTEDVDECQLMPNACQNGGTCHNTHGGYNCVCVNGWTGEDCSENIDDCASAACFHGATCHDRVASFYCECPHGRTGLLCHLNDACISNPCNEGSNCDTNPVNGKAICTCPSGYTGPACSQDVDECSLGANPCEHAGKCINTLGSFECQCLQGYTGPRCEIDVNECVSNPCQNDATCLDQIGEFQCICMPGYEGVHCEVNTDECASSPCLHNGRCLDKINEFQCECPTGFTGHLCQ
notes: Bought from R&D Systems (Cat#3647-TK); also called Notch-Fc; Notch-FC; Fc part of the bought chimera not given
[24]
  signal of biotinylated Notch-Fc bound to CHO-DLL4 cells without Fab (read-out not given): 531
